Data taken from US20240317885A1 (published 2024).
One block for each binder: values may come before it.

Columns and labels:
[1] = target: T1, Tax interacting protein-1 (TIP1), recombinant / purified protein (UniProt O14907 1-124); test: Biacore
T1 chain: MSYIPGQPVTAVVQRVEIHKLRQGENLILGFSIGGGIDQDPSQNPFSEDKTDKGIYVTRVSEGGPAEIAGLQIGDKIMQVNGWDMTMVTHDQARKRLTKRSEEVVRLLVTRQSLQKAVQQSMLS

[2] = target: T1, Tax interacting protein-1 (TIP1), …; test: ELISA
[3] = target: T1, Tax interacting protein-1 (TIP1), …; test: Biacore
[4] = target: T1, Tax interacting protein-1 (TIP1), …; test: ELISA
[5] = target: v144; test: Biacore
[6] = target: v127; test: Biacore

Kd [1]: 0.107 nM
Kd [2]: 0.124 nM
Kd [3]: 0.107 nM
EC50 [4]: 0.164 nM
B1: human IgG1 v111 (antibody, V domains shown)
VH: QMQLVQSGAEVKKPGESLKISCKGSGYSFTSNWIGWVRQMPGKGLEWMGIIYPGDSDTRYSPSFQGQVTISADKSISTAYLQWSSLKASDTAMYYCARQQGHDAFDIWGQGTTVTVSS
VL: SYELTQPPSVSVSPGQTARITCSGDALPKRYAYWYRQKPGQAPVLVIQKDTERPSGIPERFSGSISGTTVTLTISGVQAEDEADYYCQSTDSSASYAVFGGGTKLTVL

Kd [5]: 0.241 nM
Kd [6]: 0.13 nM
B2: TIP1 (other)
chain: T1 chain
